Data taken from patent US9428773B2, “Methods of producing acetoin and 2,3-butanediol using photosynthetic microorganisms” (The Regents of the University of California, priority 2012, dated 2016).

B1: sADH (C. p.): Candida parapsilosis M203011 secondary alcohol dehydrogenase, NADPH, S-installing (SEQ ID NO: 17) (protein, listed as Candida parapsilosis)
chain: MGEIESYCNKELGPLPTKAPTLSKNVLDLFSLKGKVASVTGSSGGIGWAVAEAYAQAGADVAIWYNSHPADEKAEHLQKTYGVHSKAYKCNISDPKSVEETISQQEKDFGTIDVFVANAGVTWTQGPEIDVDNYDSWNKIISVDLNGVYYCSHNIGKIFKKNGKGSLIITSSISGKIVNIPQLQAPYNTAKAACTHLAKSLAIEWAPFARVNTISPGYIDTDITDFASKDMKAKWWQLTPLGREGLTQELVGGYLYLASNASTFTTGSDVVIDGGYTCP
B2: sADH (T. b.): Thermoanaerobacter brockii HTD4 secondary alcohol dehydrogenase, NADPH, R-installing (SEQ ID NO: 23) (protein, listed as Thermoanaerobacter brockii)
chain: MKGFAMLSIGKVGWIEKEKPAPGPFDAIVRPLAVAPCTSDIHTVFEGAIGERHNMILGHEAVGEVVEVGSEVKDFKPGDRVVVPAITPDWRTSEVQRGYHQHSGGMLAGWKFSNVKDGVFGEFFHVNDADMNLAHLPKEIPLEAAVMIPDMMTTGFHGAELADIELGATVAVLGIGPVGLMAVAGAKLRGAGRIIAVGSRPVCVDAAKYYGATDIVNYKDGPIESQIMNLTEGKGVDAAIIAGGNADIMATAVKIVKPGGTIANVNYFGEGEVLPVPRLEWGCGMAHKTIKGGLCPGGRLRMERLIDLVFYKRVDPSKLVTHVFRGFDNIEKAFMLMKDKPKDLIKPVVILA
B3: adh (L. p.): Leuconostoc pseudomesenteroides CHCC 2114 secondary alcohol dehydrogenase, NADPH, S-installing (SEQ ID NO: 19) (protein)
chain: MTKKVAMVTGGAQGIGEAIVRRLSADGFAVAVADLNEAKSKEVATDIEKNGGTAIAVKLDVSDREGFFAAVKEVAEKLGGFDVLVNNAGLGPTTPIDTITPELFDKVYHINVAGDIWGIQAAVEQFKKNGNGGKIINATSQAGVVGNPNLSLYSSTKFAVRGLTQVAARDLAEQNITVNAYAPGIVKTPMMFDIAHEVGKNAGKDDEWGMQTFAKDIALKRLSEPEDVAAAVAFLAGPDSNYITGQTIEVDGGMQFH
modifications: Leuconostoc pseudomesenteroides
B4: sADH (C. b.): Clostridium beijerinckii NRRL B593 secondary alcohol dehydrogenase, NADPH, R-installing (SEQ ID NO: 21) (protein, listed as Clostridium beijerinckii)
chain: MKGFAMLGINKLGWIEKERPVAGSYDAIVRPLAVSPCTSDIHTVFEGALGDRKNMILGHEAVGEVVEVGSEVKDFKPGDRVIVPCTTPDWRSLEVQAGFQQHSNGMLAGWKFSNFKDGVFGEYFHVNDADMNLAILPKDMPLENAVMITDMMTTGFHGAELADIQMGSSVVVIGIGAVGLMGIAGAKLRGAGRIIGVGSRPICVEAAKFYGATDILNYKNGHIVDQVMKLTNGKGVDRVIMAGGGSETLSQAVSMVKPGGIISNINYHGSGDALLIPRVEWGCGMAHKTIKGGLCPGGRLRAEMLRDMVVYNRVDLSKLVTHVYHGFDHIEEALLLMKDKPKDLIKAVVIL

How the values were obtained:
[1] = sADH (ADH) activity in crude cell lysate of E. coli production strains, oxidation of NAD(P)H with acetoin; format: biochemical; details: expressed in E. coli, excess substrate, NADPH
Experimental: (§1) Alcohol dehydrogenase (ADH) activity was determined by measuring the oxidation of NAD(P)H. The reaction mixture contained 50 mM 3-(N-morpholino) propanesulfonic acid (MOPS) pH 7.0, 25 mM acetoin and 0.2 mM NAD(P)H. The consumption of NAD(P)H was monitored at 340 nm. One specific unit of ADH activity corresponds to the oxidation of 1 nmol of NAD(P)H per minute per mg of protein.
The resulting E. coli strains were cultured in modified M9 medium, containing 50 g/L glucose, at 30° C. for 40 h (FIG. 4B). […] The fourth strain, expressing adh (C. b.), maintained a relatively low acetoin concentration (less than 6% of total production) and produced 13.8 g/L total 23BD as a mixture of (R,R)-23BD and meso-23BD stereoisomers forming 74% and 21% of total production respectively (FIG. 4B). The strains expressing adh (T. b.) and adh (C. p.) produced 2.4 g/L and 14.2 g/L 23BD respectively with both isomers formed in roughly equal amounts in each. […] Enzyme activities measured from crude cell lysate isolated during production were high for both sADH (C. p.) and sADH (C. b.), at 265 and 440 nmol min^−1 mg^−1 respectively, when excess substrate was used (FIG. 4B). […] The major 23BD product of each of the adh expressing strains matched the stereochemistry predicted by previous characterization (41-43).

[2] = ADH activity in crude cell lysate of modified S. elongatus strains, oxidation of NAD(P)H with acetoin; format: biochemical; details: for ADH enzyme activity in crude cell lysate: expressed in S. elongatus, lysate isolated during production
Experimental: Enzyme Assays. S. elongatus cells were collected 72 h after induction by centrifugation (4000 g, 5 min, washed in 50 mM potassium phosphate buffer (pH 7.5) and resuspended in the same buffer. Crude extract were prepared with 0.1-mm glass beads and a Mini bead beater (Mini Bead Beater 8 (BioSpec Products, Inc., Bartlesville, Okla.)). The total protein determination was performed by Advanced Protein Assay Reagent from Cytoskeleton, Inc. (Denver, Colo.).
as §1
23BD production was detected in three out of four S. elongatus strains (FIG. 4C). […] The strain expressing adh (T. b.) produced 301 mg/L (R,R)-23BD with trace amounts of meso-23BD but also allowed for accumulation of acetoin (FIG. 4C). The strain expressing adh (C. b.) produced 270 mg/L (R,R)-23BD (major) and undetectable levels of acetoin, indicating high flux through the intermediate. The strain expressing adh (C. p.) produced 65 mg L^−1 23BD, with meso-23BD as the primary product and accumulated toxic levels of acetoin. The remaining S-installing adh (L. p.) was not active in S. elongatus, resulting only in accumulation of acetoin. […] Activity for adh (C. p.) was roughly 5-fold higher again than adh (C. b.), however low production and acetoin accumulation was observed, similar to the result in E. coli. […] The two sADH with highest production and lowest acetoin accumulation were further tested with the stronger ALDC gene alsD (A. h.). Both strains increased production, yielding 568 mg L^−1 from adh (T. b.) and 952 mg L^−1 from adh (C. b.), the latter of which is 3 fold higher than production with alsD (E. a.) over 72 hours (FIG. 4C).

Molecule	sADH enzyme activity in crude cell lysate [1]	fold higher activity than adh (C. b.) ([2]; S. elongatus crude cell lysate)	ADH enzyme activity in crude cell lysate [2]	fold higher activity than adh (T. b.) ([2]; S. elongatus crude cell lysate)
B1	265 nmol/min/mg	roughly 5 fold		
B2	Relatively low activity		6.3 nmol min^−1 mg ^−1	
B3			could not be detected	
B4	440 nmol/min/mg		56.3 nmol min^−1 mg ^−1	roughly 10 fold
